Measured values published in PMC7884335.

Legend:
Conditions in all cases: EMSA: Tris-HCl pH 8.0, MgCl2, NaCl, EDTA, 1 mM DTT, 0.01% NP-40, 50 ug/ml poly[d(I-C)], glycerol (masses given, total volume not stated), room temperature …
[1] = target: T1, His-RegX3 (Msm) (Mycobacterium smegmatis MC2 155) (UniProt Q9F868); assay: EMSA
T1 sequence: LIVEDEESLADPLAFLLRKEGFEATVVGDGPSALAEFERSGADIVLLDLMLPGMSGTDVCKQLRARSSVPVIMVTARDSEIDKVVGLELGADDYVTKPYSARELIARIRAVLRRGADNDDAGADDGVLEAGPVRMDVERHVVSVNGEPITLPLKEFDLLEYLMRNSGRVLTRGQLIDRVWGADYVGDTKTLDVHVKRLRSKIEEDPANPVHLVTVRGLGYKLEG

[2] = test system: His-PrpR (Msm) (Mycobacterium smegmatis MC2 155); assay: BLI
[3] = test system: His-RegX3 (Msm) (Mycobacterium smegmatis MC2 155); assay: BLI

Substance	binding [1]	Kd [2] [nM]	Kd [3] [nM]
AGCCAGTGGCGATAAGACACACAGCCTAACCGCGATTCTTACACAGGATTTGCAAAGGCTGGCCCACCAGGACACAAAACTACGCATATACAGGCTCTTTACGTGCCATTAGGGGCCTTATCGCCACTGGCT (double strand) [PprpR-3]	binds	–	–
prpR promoter probe for BLI (Msm)	–	53.2	165
